{"source": "patent US20100093618A1", "biological_target": "FLAG-Tat (p3XFLAG-CMV-Tat, wild type) (HIV-1) (UniProt P04608)", "assay": "cell-based or functional assay"}
{"substance": "HA-IκB-α 72-287 (pCMV4-HA-IκB-α 72-287, expressed in transfected cells) (from UniProt P25963 72-287)", "values": [{"measurement": "translocation of Tat from the nucleus to the cytoplasm (confocal microscopy, HeLa cells) (% of the analyzed cells)", "value": 50}]}
